# The supplement of paper PMC6757056
# ± gives the standard deviation of the averaged measurements.
# B1: library; a variant is named by its letters at N, in order (parent)
# chain: GCUGUCACCGAGAAACUGUGAAGUAUAUCUUAAACCUGGGCACUUAAAAGAUAUAUGGAGUUAGUAGUGCAACCUGCUCGGUCUGAUGAGUCCNNNNNNGGACGAAACAGC
# Key:
# cyclic di-GMP [1] = variants of: B1; test: normalized RNA/DNA level without ligand (relative to sTRSVctl = 100) (log10 (% of sTRSVctl)); HEK293T; ligand: cyclic di-GMP (c-di-GMP-II aptamer); higher = less ribozyme self-cleavage, higher mRNA level; conditions: reporter: mCherry (pCS4076), ligand present: no
# Summary of the method: (§1)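 Library plasmids encoding reporter-linked ribozyme switches (mCherry, or eGFP for some folinic acid experiments) were transfected into HEK293T at 4 µg per 6-well well. Ligand, when used, was added 1 h before transfection. Total RNA was extracted with EDTA 72 h later, then reverse-transcribed, amplified, barcoded and sequenced. RNA level was RNA reads over DNA reads, divided by a spiked-in non-cleaving control (or the top 25 sequences), ×100, log10; only sequences with ≥100 DNA reads were kept.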
# cyclic di-GMP [2] = variants of: B1; test: normalized RNA/DNA level with ligand (relative to sTRSVctl = 100) (log10 (% of sTRSVctl)); HEK293T; ligand: cyclic di-GMP (c-di-GMP-II aptamer); ligand concentration (+) RNA-Seq: 1 mM; higher = less ribozyme self-cleavage, higher mRNA level; conditions: reporter: mCherry (pCS4076), ligand present: yes
# Summary of the method: as §1
Variant,normalized RNA/DNA level without ligand (log10) (cyclic di-GMP [1]),normalized RNA/DNA level with ligand (log10) (cyclic di-GMP [2])
GCUGUCACCGAGAAACUGUGAAGUAUAUCUUAAACCUGGGCACUUAAAAGAUAUAUGGAGUUAGUAGUGCAACCUGCUCGGUCUGAUGAGUCCGAUGCUGGACGAAACAGC [GAUGCU],1.73 ± 0.033,1.85 ± 0.12
GCUGUCACCGAGAAACUGUGAAGUAUAUCUUAAACCUGGGCACUUAAAAGAUAUAUGGAGUUAGUAGUGCAACCUGCUCGGUCUGAUGAGUCCGUAAUCGGACGAAACAGC [GUAAUC],1.35 ± 0.22,1.56 ± 0.12
GCUGUCACCGAGAAACUGUGAAGUAUAUCUUAAACCUGGGCACUUAAAAGAUAUAUGGAGUUAGUAGUGCAACCUGCUCGGUCUGAUGAGUCCAUACGUGGACGAAACAGC [AUACGU],1.67 ± 0.043,1.79 ± 0.059
GCUGUCACCGAGAAACUGUGAAGUAUAUCUUAAACCUGGGCACUUAAAAGAUAUAUGGAGUUAGUAGUGCAACCUGCUCGGUCUGAUGAGUCCGUCGACGGACGAAACAGC [GUCGAC],1.5985 ± 0.0011,1.76 ± 0.16
GCUGUCACCGAGAAACUGUGAAGUAUAUCUUAAACCUGGGCACUUAAAAGAUAUAUGGAGUUAGUAGUGCAACCUGCUCGGUCUGAUGAGUCCAGCCUGGGACGAAACAGC [AGCCUG],1.6624 ± 0.00017,1.81 ± 0.15
GCUGUCACCGAGAAACUGUGAAGUAUAUCUUAAACCUGGGCACUUAAAAGAUAUAUGGAGUUAGUAGUGCAACCUGCUCGGUCUGAUGAGUCCGCGUCCGGACGAAACAGC [GCGUCC],1.63 ± 0.055,1.81 ± 0.047
GCUGUCACCGAGAAACUGUGAAGUAUAUCUUAAACCUGGGCACUUAAAAGAUAUAUGGAGUUAGUAGUGCAACCUGCUCGGUCUGAUGAGUCCAAAACUGGACGAAACAGC [AAAACU],1.669 ± 0.0017,1.79 ± 0.086
GCUGUCACCGAGAAACUGUGAAGUAUAUCUUAAACCUGGGCACUUAAAAGAUAUAUGGAGUUAGUAGUGCAACCUGCUCGGUCUGAUGAGUCCUUCUCGGGACGAAACAGC [UUCUCG],1.8 ± 0.065,1.91 ± 0.15
GCUGUCACCGAGAAACUGUGAAGUAUAUCUUAAACCUGGGCACUUAAAAGAUAUAUGGAGUUAGUAGUGCAACCUGCUCGGUCUGAUGAGUCCACUUACGGACGAAACAGC [ACUUAC],1.7124 ± 0.0011,1.84 ± 0.096
GCUGUCACCGAGAAACUGUGAAGUAUAUCUUAAACCUGGGCACUUAAAAGAUAUAUGGAGUUAGUAGUGCAACCUGCUCGGUCUGAUGAGUCCAAAAAGGGACGAAACAGC [AAAAAG],1.45 ± 0.09,1.66 ± 0.082
GCUGUCACCGAGAAACUGUGAAGUAUAUCUUAAACCUGGGCACUUAAAAGAUAUAUGGAGUUAGUAGUGCAACCUGCUCGGUCUGAUGAGUCCUCUGCGGGACGAAACAGC [UCUGCG],1.78 ± 0.035,1.85 ± 0.12
GCUGUCACCGAGAAACUGUGAAGUAUAUCUUAAACCUGGGCACUUAAAAGAUAUAUGGAGUUAGUAGUGCAACCUGCUCGGUCUGAUGAGUCCCCGUGUGGACGAAACAGC [CCGUGU],1.66 ± 0.039,1.86 ± 0.095
GCUGUCACCGAGAAACUGUGAAGUAUAUCUUAAACCUGGGCACUUAAAAGAUAUAUGGAGUUAGUAGUGCAACCUGCUCGGUCUGAUGAGUCCCUUCGUGGACGAAACAGC [CUUCGU],1.8 ± 0.04,1.87 ± 0.094
GCUGUCACCGAGAAACUGUGAAGUAUAUCUUAAACCUGGGCACUUAAAAGAUAUAUGGAGUUAGUAGUGCAACCUGCUCGGUCUGAUGAGUCCACCGGAGGACGAAACAGC [ACCGGA],1.51 ± 0.13,1.71 ± 0.056
GCUGUCACCGAGAAACUGUGAAGUAUAUCUUAAACCUGGGCACUUAAAAGAUAUAUGGAGUUAGUAGUGCAACCUGCUCGGUCUGAUGAGUCCACCGCCGGACGAAACAGC [ACCGCC],1.74 ± 0.057,1.89 ± 0.095
GCUGUCACCGAGAAACUGUGAAGUAUAUCUUAAACCUGGGCACUUAAAAGAUAUAUGGAGUUAGUAGUGCAACCUGCUCGGUCUGAUGAGUCCUAAGCGGGACGAAACAGC [UAAGCG],1.75 ± 0.023,1.86 ± 0.089
GCUGUCACCGAGAAACUGUGAAGUAUAUCUUAAACCUGGGCACUUAAAAGAUAUAUGGAGUUAGUAGUGCAACCUGCUCGGUCUGAUGAGUCCAGUGGUGGACGAAACAGC [AGUGGU],1.56 ± 0.089,1.759 ± 0.014
GCUGUCACCGAGAAACUGUGAAGUAUAUCUUAAACCUGGGCACUUAAAAGAUAUAUGGAGUUAGUAGUGCAACCUGCUCGGUCUGAUGAGUCCUCGUCCGGACGAAACAGC [UCGUCC],1.794 ± 0.01,1.9 ± 0.081
GCUGUCACCGAGAAACUGUGAAGUAUAUCUUAAACCUGGGCACUUAAAAGAUAUAUGGAGUUAGUAGUGCAACCUGCUCGGUCUGAUGAGUCCCUUAAGGGACGAAACAGC [CUUAAG],1.69 ± 0.05,1.89 ± 0.079
GCUGUCACCGAGAAACUGUGAAGUAUAUCUUAAACCUGGGCACUUAAAAGAUAUAUGGAGUUAGUAGUGCAACCUGCUCGGUCUGAUGAGUCCUCGCAGGGACGAAACAGC [UCGCAG],1.762 ± 0.0034,1.87 ± 0.13
GCUGUCACCGAGAAACUGUGAAGUAUAUCUUAAACCUGGGCACUUAAAAGAUAUAUGGAGUUAGUAGUGCAACCUGCUCGGUCUGAUGAGUCCUCCAGGGGACGAAACAGC [UCCAGG],1.81 ± 0.046,1.9 ± 0.14
GCUGUCACCGAGAAACUGUGAAGUAUAUCUUAAACCUGGGCACUUAAAAGAUAUAUGGAGUUAGUAGUGCAACCUGCUCGGUCUGAUGAGUCCAGUUUCGGACGAAACAGC [AGUUUC],1.75 ± 0.025,1.85 ± 0.13
GCUGUCACCGAGAAACUGUGAAGUAUAUCUUAAACCUGGGCACUUAAAAGAUAUAUGGAGUUAGUAGUGCAACCUGCUCGGUCUGAUGAGUCCUGUUUCGGACGAAACAGC [UGUUUC],1.812 ± 0.0031,1.92 ± 0.08
GCUGUCACCGAGAAACUGUGAAGUAUAUCUUAAACCUGGGCACUUAAAAGAUAUAUGGAGUUAGUAGUGCAACCUGCUCGGUCUGAUGAGUCCAGCAUCGGACGAAACAGC [AGCAUC],1.8 ± 0.021,1.88 ± 0.12
GCUGUCACCGAGAAACUGUGAAGUAUAUCUUAAACCUGGGCACUUAAAAGAUAUAUGGAGUUAGUAGUGCAACCUGCUCGGUCUGAUGAGUCCCAUGGUGGACGAAACAGC [CAUGGU],1.648 ± 0.0024,1.77 ± 0.16
GCUGUCACCGAGAAACUGUGAAGUAUAUCUUAAACCUGGGCACUUAAAAGAUAUAUGGAGUUAGUAGUGCAACCUGCUCGGUCUGAUGAGUCCCUCUCGGGACGAAACAGC [CUCUCG],1.89 ± 0.031,1.96 ± 0.1
